Substitutions are numbered along the chain they refer to. Names may count otherwise.
Tests used:
[1] = target: gB AD-2S1 peptide (human cytomegalovirus); experiment: SPR; conditions: both partners purified
[2] = target: T1, gB AD-2S1 peptide (Human cytomegalovirus (HHV-5), gB …); experiment: ELISA; 384-well plates coated overnight at 4°C with 45 ng gB AD-2S1 peptide or gB ectodomain per well; mAbs in a 12-point 3-fold dilution from 1 μg/mL; detected with goat anti-human IgG-HRP; EC50; conditions: both partners purified
T1 chain: HRANETIYNTTLKYG

[3] = target: T2, full-length gB (Towne strain) expressed on HEK293T cells (Human cytomegalovirus strain Towne, UniProt P13201); experiment: flow cytometry on cells; set-up: AUC of a 3-point dilution series: unit not given beside the values; conditions: one partner purified
T2 construct: also called cell-associated gB

[4] = target: gB AD-2S1 peptide (human cytomegalovirus); experiment: SPR; conditions: both partners purified; remark: listed apart in the source
[5] = target: T2, full-length gB (Towne strain) expressed …; experiment: cell-based or functional assay
[6] = target: T3, gB on whole CMV virions of strain TB40/E (Human cytomegalovirus strain TB40/E (gB …, UniProt P13201, strain)); experiment: ELISA; conditions: one partner purified
T3 construct: also called whole virion CMV strain TB40/E; source: whole TB40/E virions coated on the plate (33 PFU/well)

[7] = target: T1, gB AD-2S1 peptide; experiment: SPR; conditions: both partners purified

B1: I7 (antibody, V domains shown)
VH: QVQLVESGGGVVQPGRSLRLSCAASGFTFSGYNLHWVRQAPGKGLEWVAVISIDGSNKHYADSVKGRFTISRDNSKNTLYLQMNSLRAEDTAVYYCARDGRSVGGFSGILDPWGQGTLVTVSS
VL: not shown
notes: also called intermediate 7
[1]
  Kd: 4.47 nM
  kon: 1.46e+08 M⁻¹ s⁻¹

B2: I8 with VH A33N reverted to germline (antibody, V domains shown)
VH: B1 VH with G31S, N33A, L34M, I53N, H59Y
VL: not shown
[2]
  other: 395 fold
[3]
  other: 1.4 fold

B3: TRL345 UCA (antibody, V domains shown)
VH: B1 VH with G31S, N33A, L34M, I53Y, H59Y
VL: not shown
notes: also called unmutated common ancestor
[4]
  Kd: 27.6 nM
  kon: 9.73e+07 M⁻¹ s⁻¹

B4: TRL345 unmutated common ancestor (UCA) mAb (antibody, V domains shown)
VH: B1 VH with G31S, N33A, L34M, I53Y, H59Y
VL: not shown
notes: also called TRL345 UCA; TRL345.UCA
[3]
  AUC of a 3-point dilution series: 97.3 ± 21.2

B5: I5 (antibody, V domains shown)
VH: B1 VH with A23S, G31D, Y60H, L79V, Y80N, F106Y
VL: EIVLTQSPATLSLSPGERATLSCRASQSVGSYLAWYQQKPGQAPRLLIYDASERATGIPARFSGSGSGTDFTLTISSLEPEDVAVYYCQQRSNWPPLTFGGGTKVEIK
notes: also called intermediate 5
[1]
  Kd: 5.52 nM
  kon: 1.23e+08 M⁻¹ s⁻¹

B6: I8 with VL S30G reverted to germline (antibody, V domains shown)
VH: B1 VH with G31S, L34M, I53N, H59Y
VL: not shown
[5]
  fold decrease in neutralization potency for CMV strain Towne against I8: 9 fold
[2]
  binding result: binds
[3]
  binding result: binds

B7: I8 with VH Y52aN reverted to germline (antibody, V domains shown)
VH: B1 VH with G31S, L34M, I53Y, H59Y
VL: not shown
[2]
  binding result: binds
[3]
  binding result: binds

B8: MAB319 (antibody, V domains shown)
VH: B1 VH with A23S, G31D, N57D, Y60H, I70V, L79V, Y80S, N84D, A88P, F106Y
VL: B5 VL with S92N
[1]
  Kd: 0.9 nM
  kon: 1.3e+08 M⁻¹ s⁻¹

B9: TRL345 UCA with VL N53D (antibody, V domains shown)
VH: B1 VH with G31S, N33A, L34M, I53Y, H59Y
VL: not shown
[3]
  binding result: binds

B10: I8 with VL N53D reverted to germline (antibody, V domains shown)
VH: B1 VH with G31S, L34M, I53N, H59Y
VL: not shown
[5]
  fold decrease in neutralization potency for CMV strain Towne against I8: 2.5 fold
[2]
  binding result: binds
[3]
  binding result: binds

B11: TRL345 lineage intermediate 8 (I8) mAb (antibody, V domains shown)
VH: B1 VH with G31S, L34M, I53N, H59Y
VL: not shown
[5]
  neutralization IC50, CMV strain AD169rUL131-GFP (gB genotype 2) on MRC-5 fibroblasts: 0.83 µg/mL
  neutralization IC50, CMV strain Towne (gB genotype 1) on MRC-5 fibroblasts: 2.78 µg/mL
[2]
  fold increase in ELISA binding magnitude against the UCA: 151 fold
[3]
  AUC of a 3-point dilution series: 133 ± 33.3
[6]
  binding result: binds

B12: TRL345 UCA with VH A33N (antibody, V domains shown)
VH: B1 VH with G31S, L34M, I53Y, H59Y
VL: not shown
[2]
  fold increase in binding magnitude against the UCA: 269 fold
[3]
  fold increase in binding magnitude against the UCA: 2.5 fold

B13: TRL345 UCA with VH Y52aN (antibody, V domains shown)
VH: B1 VH with G31S, N33A, L34M, I53N, H59Y
VL: not shown
[3]
  binding result: binds

B14: TRL345 I8 (antibody, V domains shown)
VH: B1 VH with G31S, L34M, I53N, H59Y
VL: not shown
[4]
  Kd: 23.2 nM
  kon: 1.33e+08 M⁻¹ s⁻¹

B15: TRL345 UCA with VH A33G (antibody, V domains shown)
VH: B1 VH with G31S, N33G, L34M, I53Y, H59Y
VL: not shown
[2]
  fold increase in binding against the TRL345 UCA: ~15 fold
[3]
  fold increase in binding against the TRL345 UCA: 1.1 fold

B16: TRL345 UCA with VL S30G (antibody, V domains shown)
VH: B1 VH with G31S, N33A, L34M, I53Y, H59Y
VL: not shown
[2]
  fold increase in binding magnitude against the UCA: 1.8 fold
[3]
  fold increase in binding magnitude against the UCA: 1.2 fold

B17: 3–25 UCA with VH A33N (antibody, V domains shown)
VH: QVQLVESGGGVVQPGRSLRLSCAASGFTFSSYNMHWVRQAPGKGLEWVAVISYDGSNKYYADSVKGRFTISRDNSKNTLYLQMNSLRAEDTAVYYCAREGYCSGGSCYSGQPDYWGQGTLVTVSS
VL: not shown
[3]
  other: 4.4 fold

B18: 3–25 UCA with VH A33G (antibody, V domains shown)
VH: B17 VH with N33G
VL: not shown
[3]
  other: 1.4 fold

B19: MAB343 (antibody, V domains shown)
VH: QVQLQESGGGVVQPGRSLRLSCAASGFTFNTYNMHWVRQAPGKGLEWVAVISNDGTYKYSADSVKGRFSISRGNSKNTLYLQMNSLRPDDTAVYYCARDGRSVGGFSGILDPWGQGTLATVSS
VL: B5 VL with L4M, E17D, E53D, V83F
[1]
  Kd: 1.57 nM
  kon: 1.61e+08 M⁻¹ s⁻¹

B20: TRL345 mAb (antibody, V domains shown)
VH: B19 VH with Q5V, N30S, T31D, N53I, K65A, I70L, G73D, V93I, A119V
VL: B5 VL with L4M, E17D, I48M, A51S, E53V, V83F, S92N
[5]
  neutralization IC50 on ARPE epithelial cells: < 0.35 µg/mL
  neutralization IC50 on MRC-5 fibroblasts: < 0.25 µg/mL
[3]
  AUC of a 3-point dilution series: 152 ± 20.8

B21: MAB316 (antibody, V domains shown)
VH: QVQLVQSGGGVVQPGRSLTLSCAASGFTFSGFSLHWVRQAPGKGLQWVAVISFDGNHKHFADSLKGRFTISRDNSKNTLYLQINDLRGEDTAVYYCARDGRAVDGFSGILDFWGQGTLVSVSS
VL: B5 VL with L4M, S31R, A34T, Y36F, I58V, V83F
[1]
  Kd: 2.96 nM
  kon: 1.63e+08 M⁻¹ s⁻¹

B22: I4 (antibody, V domains shown)
VH: B19 VH with Q5V, G73D, A119V
VL: B5 VL with E17D, E53D, V83F
notes: also called intermediate 4
[1]
  Kd: 1.85 nM
  kon: 1.3e+08 M⁻¹ s⁻¹

B23: TRL345 (antibody, V domains shown)
VH: B19 VH with Q5V, N30S, T31D, N53I, K65A, I70L, G73D, V93I, A119V
VL: B5 VL with L4M, E17D, I48M, A51S, E53V, V83F, S92N
notes: also called MAB345
[4]
  Kd: 0.29 nM
  kon: 1.52e+08 M⁻¹ s⁻¹

B24: MAB309 (I2) (antibody, V domains shown)
VH: QVQLVQSGGGVVQPGTSLRLSCAASGFMFNTYNMHWVRQAPGKGLEWVAVISNDGTYKHFADSLKGRFSISRDDSKNTLYLHMNSLRPDDTAIYYCARDGRSVGGFSGILDPWGQGTLVTVSS
VL: B5 VL with E17D, S28T, S31R, E53D, P59S, V83F, N93S
[1]
  Kd: 3.77 nM
  kon: 1.24e+08 M⁻¹ s⁻¹

B25: MAB313 (antibody, V domains shown)
VH: B21 VH with V12I, G31A, F32Y, H57F, K65R, T78R, L79F, I83M, D85G
VL: B5 VL with L4M, S31R, A34T, Y36F, V83F, S92A
[1]
  Kd: 4.38 nM
  kon: 1.54e+08 M⁻¹ s⁻¹

B26: MAB338 (antibody, V domains shown)
VH: QVQLVESGGGVVQPGRSLRLSCSGSGFTFSDYNLHWVRQAPGKGLEWVAVISIDGTNKHHADSVKGRFTISRDNSKNTVNLEMSRLKAEDTAVYYCVRDGRSIGGYSGIFDPWGQGTLVTVSS
VL: B5 VL with G30D, S31R, E53Q, T74A, V105I
[1]
  Kd: 1.99 nM
  kon: 1.36e+08 M⁻¹ s⁻¹

B27: I1 (antibody, V domains shown)
VH: B19 VH with Q5V, G73D, A119V
VL: B5 VL with L4M, E17D, E53D, V83F
notes: also called intermediate 1
[1]
  Kd: 1.59 nM
  kon: 1.43e+08 M⁻¹ s⁻¹

B28: MAB310 (I3) (antibody, V domains shown)
VH: B24 VH with H59Y, F60S, D74N, I93V
VL: B5 VL with E17D, S28T, S31R, E53D, P59S, V83F
[1]
  Kd: 3.11 nM
  kon: 1.87e+08 M⁻¹ s⁻¹

B29: MAB318 (antibody, V domains shown)
VH: B24 VH
VL: B5 VL with I2V, E17D, S28T, S31R, E53D, P59S, S76G, V83F, N93S
[1]
  Kd: 3.68 nM
  kon: 1.33e+08 M⁻¹ s⁻¹

B30: anti-gB AD-2 mAb 3-25 (antibody, V domains shown)
VH: QVQLVESGGGVVQPGRSLRLSCAASGFTFSNHGLHWVRQPPGKGLEWVAVVSKDGTNEHYADSVRGRFTISRDNSKNTLYLLMKSLRLEDTAVYYCAREGYCGDDRCYSGQPDYWGQGILVTVSS
VL: B5 VL with S7F, S31R, A51S, E53N, I58V, T74S, V83F, Y87F, N93H
[4]
  Kd: 4.42 nM
  kon: 1.49e+08 M⁻¹ s⁻¹

B31: TRL345 lineage second intermediate (I4) mAb (antibody, V domains shown)
VH: B19 VH with Q5V, G73D, A119V
VL: B5 VL with E17D, E53D, V83F
[7]
  other: 5 fold

— PMC9891502 (PLOS Pathogens, 2023)
